B1: agouti protein: Recombinant murine agouti signal protein purified from a baculovirus expression system (protein)
chain: MDVTRLLLATLVSFLCFFTVHSHLALEETLGDDRSLRSDSSMNSLDFSSVSIVALNKKSKKISRKEAEKRKRSSKKKASMKKVARPPPPSPCVATRDSCKPPAPACCDPCASCQCRFFGSACTCRVLNPNC

Assays:
tyrosinase [1] = experiment: DOPA oxidase enzyme assay on extracts of treated melan-a cells; format: cell-based, murine; details: extracts of melan-a cells cultured 5 days; 10 nM
Experimental: Assays for melanogenic catalytic activities as described below were carried out at pH 6.8, 37° C. for 60 minutes. (1) Tyrosine hydroxylase activity was measured using the [^3H]tyrosine assay (Hearing and Ekel, 1976; Hearing, 1987). This method specifically measures the tritiated water produced during the hydroxylation of tyrosine to DOPA. (2) DOPA oxidase activity was measured using incorporation of [3-^14C]DOPA into acid-insoluble melanin as detailed previously (Aroca et al., 1993). (3) DOPAchrome tautomerase activity was measured by HPLC as the disappearance of DOPAchrome substrate and the production of DHICA rather than DHI; data are converted to pmol products by comparison with known standards. The HPLC assay was detailed previously (Palumbo et al., 1987; Tsukamoto et al., 1992). (4) DHI oxidase and DHICA oxidase activities were measured by HPLC as the disappearance of these substrates from reaction mixtures compared to controls for spontaneous auto-oxidation; data are converted to pmol by comparison with known standard (Aroca et al., 1993). (5) Melanin production was measured using incorporation of [^14C]tyrosine into acid-insoluble melanin, also as detailed previously (Hearing and Ekel, 1976; Hearing, 1987); pmol melanin produced are calculated from the radioactive product. […]

melan-a cells = experiment: Pigmentation and ultrastructure of melan-a cells; format: cell-based, murine
Experimental: Cells were harvested, centrifuged for 5 minutes at 14,000 g at 4° C., and fixed for 2 hours at 23° C. in 2% glutaraldehyde-2% paraformaldehyde in 0.1 M sodium cacodylate buffer, pH 7.3; the fixative was then removed and the samples were stored in phosphate-buffered saline containing 2% sucrose at 4° C. Samples were subsequently processed with graded alcohols and embedded in epoxy resin for electron microscopy in the usual manner. Thin sections were stained with uranyl acetate and lead citrate, viewed and photographed with a Zeiss EM10 electron microscope, as previously detailed (Prota et al., 1995).

tyrosinase [2] = experiment: Northern blotting of tyrosinase RNA in B16F10 melanoma cells; format: cell-based; details: B16F10 murine melanoma cells, 10 nM, 5 days
Experimental: (§1) The melan-a melanocyte cell line was used as described in Example 1. This clonal line was derived from C57B1 nonagouti black mice. The growth medium was minimum essential medium containing 200 nM TPA. B16F10 melanoma cells were also used to compare the effect of agouti protein with melan-a. These cells were grown in Dulbecco's modified Eagle medium.
(§2) Recombinant agouti protein was purified from baculovirus system by Dr. Michael Ollmann in Dr. Gregory Barsh's laboratory by methods known in the art. 2×10^6 cells were seeded per 15 cm diameter dish. The medium was changed everyday, and fresh agouti protein and/or αMSH added everyday usually at 10 nM. To examine transcriptional regulation, total RNA was isolated and Northern blotting performed by methods described in Example 1. The A26 probe to the MSH-R was provided by Dr. R. Cone and is described in Mountjoy et al. Science 257:1248-1251, 1992. At the translational level, metabolic labeling was used in conjunction with immunoprecipitation as described in Example 1. Western blotting and enzyme assay was used to examine function.
(§3) The effect of agouti protein and MSH observed for melan-a cells was confirmed using B16F10 murine melanoma cells. Similar effects were observed (FIG. 13).

MSH receptor = experiment: Northern blotting of MSH receptor RNA in B16F10 melanoma cells; format: cell-based; details: B16F10 murine melanoma cells, 10 nM, 5 days
Experimental: as §1, §2, §3

MC1-R = experiment: Inhibition of activation of the MC1-R; format: biochemical; details: preparation ≧90% pure
Text: (§4) Recombinant mouse ASP was generated and purified using a baculovirus expression system as described in Ollmann et al. (in preparation). […] The experiment described in FIG. 2 has also been repeated with an ASP preparation ≧99% pure with virtually identical results.

[3] = Retention of activity at 37° in water or tissue culture media; format: physicochemical
Text: as §4

[4] = system: melan-a murine melanocytes; experiment: Chemical analysis of eumelanin and pheomelanin contents of melan-a melanocytes; format: cell-based; details: black melan-a murine melanocytes in vitro
Experimental: Chemical degradation and analysis of eumelanin and pheomelanin contents were performed and quantitated as previously reported (Ito and Fujita, 1985).

Molecule	DOPA oxidase (tyrosinase [1])	pigmentation of the cells (melan-a cells; black melan-a murine melanocytes in vitro)	amount of melanosomes (ultrastructural study) (melan-a cells; melan-a cells, 10 nM, 5 days)	melanosome structure (ultrastructural study) (melan-a cells; melan-a cells, 10 nM, 5 days)	color of cell pellet (melan-a cells; melan-a cells, 10 nM, 5 days incubation)	tyrosinase RNA (tyrosinase [2])	MSH receptor expression (MSH receptor)	Ki (MC1-R)	time for which activity is retained [3]	eumelanin production [4]	synthesis of pheomelanin [4]
α-melanocyte stimulating hormone [MSH, reference compound]	197.5 ± 17.4 pmol/μg protein/hr	–	–	–	–	–	–	–	–	–	–
B1	−2.6 ± 3.4 pmol/μg protein/hr	markedly inhibited	decreased	pheomelanosome-like structures were found	changed from black to light brown	did not reduce tyrosinase RNA below baseline	elevated	0.22 nM	more than 48 hours	significantly decreased	increased

Reference: patent US6579848B1, “Depigmenting activity of agouti signal protein and peptides thereof” (The United States of America as represented by the …, priority 1995, dated 2003)
